According to paper PMC5750218, “Protein-inspired antibiotics active against vancomycin- and daptomycin-resistant bacteria” (Nature Communications, 2018):
Converted amounts (≈) assume the structure as drawn. Read-outs that look alike come from different tables or passages of the source.

How the values were obtained:
[1] = in vitro; conditions: human, 50% human plasma (pooled, sodium heparin) in PBS, pH 7.4
Experimental: (§2) Briefly, test compounds (20 μM) were prepared from a 0.2 mM H2O stock solution (40 μL in 400 μL assay volume) except eucatropine, which was 300 μg mL^−1 in 100% DMSO (10 μL in 400 μL assay volume equivalent to 23 μM). The precipitating solution was prepared by adding 5 μL of 10 mM carbutamide in DMSO to 100 mL acetonitrile (final concentration: 135.5 ng mL^−1 or 0.5 μM carbutamide). The human plasma sample (pooled normal human plasma sodium heparin anticoagulant, 2 µL, Cat No.: [sequence], BioReclamation) and phosphate-buffer saline (PBS, pH 7.4 isotonic) were pre-heated at 37 °C for 30 min. 40 μL of test compounds (0.2 mM) were added to protein-low binding Eppendorf tubes, 160 μL of buffer was added, and the mixture was vortexed. For eucatropine, 10 μL of eucatropine (300 μg mL^−1) was added to a protein-low binding Eppendorf tube, 190 μL of buffer was added, and the mixture was vortexed. In each case, 200 μL of plasma was added and the resultant mixture vortexed. For the initial time point (reaction time t = 0 h), 50 μL of sample was immediately transferred into a protein-low binding Eppendorf tube and quenched with 150 μL of the ice-cold precipitating solution, followed by vortexing and subsequent storage at 4 °C. For the remaining time points, the plasma solution was incubated and shaken (150 rpm) at 37 °C. 50 μL aliquots were collected at time points of 0, 1, 3, 6 and 24 h and quenched with 150 μL the ice-cold precipitating solution. All samples were placed in a 4 °C fridge for 30 min then centrifuged at 14,000 × g for 8 min at 4 °C. The supernatant (100 μL) was transferred to a glass vial insert and stored at 4 °C until LC-MS/MS analysis. The percentage of test compounds remaining at the individual time points relative to sample at time point 0 h were reported.

[2] = In vivo pharmacokinetics in mice; conditions: mouse; for level at […]: 0.250 h; for level at 0.5 h: 0.500 h; for bioavailability / AUC(0-inf) / AUC(0-t) / C0 / clearance / half-life / MRT inf / MRT last / Vd / Cmax / Tmax: plasma; for bioavailability: subcutaneous, SC 10 mg kg-1 vs IV 2 mg kg-1; for MRT inf: read-out: MRT0-inf; for MRT last: read-out: MRT0-last; for Vd: read-out: Vdss
Experimental: Performed by WuXi AppTec (Shanghai) Co., Ltd. Seven to 9-week-old male CD1 mice (SLAC Laboratory Animal Co. Ltd., Shanghai, China) weighing 25–35 g were acclimated for approximate 3 days before being used in the study. Animals are group housed during acclimation and in-life study in compliance with the National Research Council 'Guide for the Care and Use of Laboratory Animals.' The animal room environment is controlled (target conditions: temperature 18 to 26 °C, relative humidity 30–70%, 12 h artificial light and 12 h dark) with temperature and relative humidity monitored daily. Animals were deprived of food for approximately 16 h before formulation administration then allowed access to Certified Rodent Diet (Catalogue # M-01F, Shanghai SLAC Laboratory Animal Co. Ltd.) ad libitum 4 h post dosing. Water was autoclaved before being provided to the animals ad libitum. Formulations of compounds were prepared on the morning of the dosing day. The formulation for the IV group was filtered with filter of 0.22 μm before being dosed to animals. After dose formulation preparation, duplicate 50 μL aliquots were removed from each dose formulation for use in dose validation. For each compound studied, three mice were dosed intravenously (IV) administered to each animal via tail vein per facility SOPs using test article formulated in deionised water at 1 mg mL^−1 with a dose volume of 2 mg mL^−1, providing a dose of 2 mg mL^−1 (based on free base concentration). An additional three mice were dosed subcutaneously (SC) administered to each animal via subcutaneous bolus on each animals’ back per facility SOPs using test article formulated in deionised water at 2 mg mL^−1 with a dose volume of 5 mg mL^−1, providing a dose of 10 mg mL^−1. All animals were killed at the last study time point (100% CO2 was introduced into the animal box).
Plasma samples were collected as the following target times after each dose administration: IV Sampling Time points (hours post dosing): 0, 0.083, 0.25, 0.5, 1, 2, 4, 8 and 24. SC Sampling Time points (hours post dosing): 0, 0.25, 0.5, 1, 2, 4, 8 and 24. Approximately 30 μL blood was obtained via submandibular or saphenous vein for the first several time points. For the last time point, samples were collected via cardiac puncture while the mouse was under anaesthesia. All blood samples were transferred into pre-chilled plastic microcentrifuge tubes containing 2 μL of ethylenediaminetetraacetic acid dipotassium salt (K2-EDTA) (0.5 M) as anticoagulant and placed on wet ice until centrifugation. Harvested blood samples were centrifuged within 30 min of collection at 7000 rpm (8546 × g) 4 °C for about 10 min. After centrifugation, plasma was transferred into another pre-labelled and pre-chilled polypropylene microcentrifuge tubes, then quick-frozen over dry ice and stored at −70 ± 10 °C until LC/MSMS analysis.
LC-MS/MS methods for the quantitative determination of the test article in mouse plasma were developed with an internal standard. Benchtop stability of the compound in mouse plasma was determined at mid QC concentrations in triplicate at 0, 2 h at room temperature. The stability was determined using mean peak area ratio of T2/T0 sample. If the mean peak area ratio is within 80%~120%, the test article in the plasma is considered stable for 2 h at room temperature. […] A set of QC samples consists of three concentration levels (low, middle and high). The sample analysis was performed concurrently with a set of calibration standards and two sets of QC samples using the LC-MS/MS method.
Plasma concentration vs. time data from individual animals was analysed by WinNonLin non-compartmental model (Phoenix WinNonlin 6.2.1, Pharsight, Mountain View, CA). Pharmacokinetic parameter C 0, T ½, CL, Vdss, C max, T max, AUC0-last, AUC0-inf, %F, MRT0-last, MRT0-inf and graphs of plasma concentration vs. time profile were derived.

[3] = tested on: Vancomycin-intermediate S. aureus NRS1; test: microbe, parasite or virus in culture; conditions: Vancomycin-intermediate NRS1
In short: (§1)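 Overnight cultures in MHB were diluted 40-fold and regrown 2–3 h at 37 °C, then exposed to twofold compound dilutions (8 to 0.003 µg mL^−1) for 24 h at 37 °C. The lowest concentration without visible growth was recorded as the MIC.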

[4] = tested on: Vancomycin-resistant (VanA) Enterococcus faecium ATCC 51559; test: microbe, parasite or virus in culture; conditions: ATCC 51559
In short: as §1

[5] = tested on: Multi-drug-resistant S. pneumoniae ATCC 700677; test: microbe, parasite or virus in culture; conditions: ATCC 700677
In short: as §1

[6] = 37 °C, 20 µM
Experimental: as §2

[7] = tested on: Bacillus subtilis ATCC 6633; test: microbe, parasite or virus in culture; type: cell-based; conditions: ATCC 6633, 48 h
[8] = Haemolysis assay; type: cell-based; conditions: human, whole blood
[9] = male, CD1, plasma, 2 mg/kg IV, n=3, read-out: Plasma concentration, Mean IV
[10] = male, CD1, plasma, 2 mg/kg IV, read-out: Plasma concentration, Mean IV
[11] = male, CD1, plasma, 10 mg/kg SC, n=3, read-out: Plasma concentration, Mean SC
[12] = male, CD1, plasma, 10 mg/kg SC, read-out: Plasma concentration, Mean SC

CNC(=O)[C@H](CCCCNC(=O)[C@H]1NC(=O)[C@H]2NC(=O)[C@H](NC(=O)[C@@H]3NC(=O)[C@H](CC(N)=O)NC(=O)[C@H](NC(=O)[C@@H](CC(C)C)NC)[C@H](O)c4ccc(c(Cl)c4)Oc4cc3cc(c4O[C@@H]3O[C@H](CO)[C@@H](O)[C@H](O)[C@H]3O[C@H]3C[C@](C)(N)[C@H](O)[C@H](C)O3)Oc3ccc(cc3Cl)[C@H]2O)c2ccc(O)c(c2)-c2c(O)cc(O)cc21)NC(=O)[C@H](CCCCN)NC(=O)[C@H](CCCCN)NC(=O)[C@H](CCCCNC(=O)c1ccc(Oc2ccccc2)cc1)NC(=O)c1ccc(Oc2ccccc2)cc1 [Compound 24, POB2K-KK-K(Vancomycin)-NHMe]
remaining at 1 h, 20 µM [1]: 100% | remaining at 3 h, 20 µM [1]: 100% | remaining at 6 h, 20 µM [1]: 106% | remaining at 24 h, 20 µM [1]: 89% | level at 5 min [2, 9]: 13.8 µg/mL | level at […] [2, 10]: 10 µg/mL | level at 0.5 h [2, 10]: 5.23 µg/mL | level at 1 h [2, 10]: 3.01 µg/mL | level at 2 h [2, 10]: 1.21 µg/mL | level at 4 h [2, 10]: 0.285 µg/mL | level at 8 h [2, 10]: 0.0819 µg/mL | level at […] [2, 11]: 0.227 µg/mL | level at 0.5 h [2, 12]: 0.548 µg/mL | level at 1 h [2, 12]: 1.4 µg/mL | level at 2 h [2, 12]: 1.92 µg/mL | level at 4 h [2, 12]: 2.35 µg/mL | level at 8 h [2, 12]: 0.845 µg/mL | level at 24 h ([2]; male, CD1, plasma, 10 mg/kg SC, 24.0 h, read-out: Plasma concentration, Mean SC): 0.243 µg/mL | AUC0-inf/AUC0-last ([2]; IV 2 mg kg-1): 101% | AUC0-inf/AUC0-last ([2]; SC 10 mg kg-1): 113% | Tlast ([2]; SC 10 mg kg-1): 24 h | bioavailability [2]: 36.3% | AUC(0-inf) ([2]; IV 2 mg kg-1): 11.2 µg·h/mL | AUC(0-t) ([2]; IV 2 mg kg-1): 11 µg·h/mL | C0 ([2]; IV 2 mg kg-1): 16.3 µg/mL | clearance ([2]; IV 2 mg kg-1): 0.179 L/h/kg | half-life ([2]; IV 2 mg kg-1): 2.29 h | MRT inf ([2]; IV 2 mg kg-1): 1.39 h | MRT last ([2]; IV 2 mg kg-1): 1.24 h | Vd ([2]; IV 2 mg kg-1): 0.248 L/kg | AUC(0-inf) ([2]; SC 10 mg kg-1): 22.6 µg·h/mL | AUC(0-t) ([2]; SC 10 mg kg-1): 20 µg·h/mL | Cmax ([2]; SC 10 mg kg-1): 2.35 µg/mL | Tmax ([2]; SC 10 mg kg-1): 4 h | half-life ([2]; SC 10 mg kg-1): 6.97 h | MRT inf ([2]; SC 10 mg kg-1): 11 h | MRT last ([2]; SC 10 mg kg-1): 7.99 h | MIC VISA [3]: 0.125 mg/L (≈ 0.0528 µM) | MIC VRE [4]: 0.5 mg/L (≈ 0.211 µM) | MIC MDR S.P. [5]: <0.003 mg/L | % compound remaining after incubation in 50% human plasma, 0h [6]: 100%

CCCCCCCCCCC(=O)N[C@@H](CCCCN)C(=O)N[C@@H](CCCCN)C(=O)N[C@@H](CCCCN)C(=O)N[C@@H](CCCCNC(=O)[C@H]1NC(=O)[C@H]2NC(=O)[C@H](NC(=O)[C@@H]3NC(=O)[C@H](CC(N)=O)NC(=O)[C@H](NC(=O)[C@@H](CC(C)C)NC)[C@H](O)c4ccc(c(Cl)c4)Oc4cc3cc(c4O[C@@H]3O[C@H](CO)[C@@H](O)[C@H](O)[C@H]3O[C@H]3C[C@](C)(N)[C@H](O)[C@H](C)O3)Oc3ccc(cc3Cl)[C@H]2O)c2ccc(O)c(c2)-c2c(O)cc(O)cc21)C(=O)O [Compound 18, nC10CO-KKK-K(Vancomycin)-OH]
Ac2Kaa concentration required to neutralise MIC activity [7]: 100 mg/L | MIC [7]: ≤ 0.004 mg/L | remaining at 1 h, 20 µM [1]: 87% | remaining at 3 h, 20 µM [1]: 87% | remaining at 6 h, 20 µM [1]: 83% | remaining at 24 h, 20 µM [1]: 93% | level at 5 min [2, 9]: 5.44 µg/mL | level at […] [2, 10]: 3.57 µg/mL | level at 0.5 h [2, 10]: 2.25 µg/mL | level at 1 h [2, 10]: 1.5 µg/mL | level at 2 h [2, 10]: 0.447 µg/mL | level at 4 h [2, 10]: 0.0696 µg/mL | level at […] [2, 11]: 2.36 µg/mL | level at 0.5 h [2, 12]: 4.45 µg/mL | level at 1 h [2, 12]: 6.22 µg/mL | level at 2 h [2, 12]: 4.52 µg/mL | level at 4 h [2, 12]: 1.26 µg/mL | level at 8 h [2, 12]: 0.113 µg/mL | AUC0-inf/AUC0-last ([2]; IV 2 mg kg-1): 101% | AUC0-inf/AUC0-last ([2]; SC 10 mg kg-1): 101% | Tlast ([2]; SC 10 mg kg-1): 8 h | bioavailability [2]: 77% | AUC(0-inf) ([2]; IV 2 mg kg-1): 4.25 µg·h/mL | AUC(0-t) ([2]; IV 2 mg kg-1): 4.21 µg·h/mL | C0 ([2]; IV 2 mg kg-1): 6.74 µg/mL | clearance ([2]; IV 2 mg kg-1): 0.487 L/h/kg | half-life ([2]; IV 2 mg kg-1): 0.77 h | MRT inf ([2]; IV 2 mg kg-1): 0.9 h | MRT last ([2]; IV 2 mg kg-1): 0.9 h | Vd ([2]; IV 2 mg kg-1): 0.43 L/kg | AUC(0-inf) ([2]; SC 10 mg kg-1): 16.3 µg·h/mL | AUC(0-t) ([2]; SC 10 mg kg-1): 16.1 µg·h/mL | Cmax ([2]; SC 10 mg kg-1): 6.29 µg/mL | Tmax ([2]; SC 10 mg kg-1): 0.83 h | half-life ([2]; SC 10 mg kg-1): 1.1 h | MRT inf ([2]; SC 10 mg kg-1): 2 h | MRT last ([2]; SC 10 mg kg-1): 1.9 h | MIC VISA [3]: 0.5 mg/L (≈ 0.235 µM) | MIC MDR S.P. [5]: 0.06 mg/L (≈ 0.0282 µM) | % compound remaining after incubation in 50% human plasma, 0h [6]: 100% | hemolysis at 3 h ([8]; 100 µg mL-1): 1.4% | hemolysis at 3 h ([8]; 1600 µg mL-1): 1.2%
